Test results taken from the supplement of paper PMC7125110.
± gives the standard error. For some assays here: Fewer inactive variants are shown than the library holds.

B1: glmS ribozyme (parent)
chain: AUAAAAGCGCCAGAACUACAGAAAUGUAGUUGACGAGGAGGAGGUUUAUCGAAUUUUCGGCGGAUGCCUCCAAA

Experiments:
Settings in all cases: with glucosamine-6-phosphate
glucosamine-6-phosphate [1] = variants of: B1; assay: kcat; higher = faster cleavage; RNA array
Outline: (§1)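 Weighted Michaelis–Menten fits across concentrations supplied kcat and KM, based on kobs from one- or two-exponential decay fits to normalised per-tile medians. The data came from barcoded ribozyme variants transcribed in situ by E. coli RNA polymerase on sequenced MiSeq chips and tracked at 37 °C by a hybridised Cy3 probe. Glucosamine-6-phosphate (40 μM to 10 mM) in HEPES/KCl/Mg(OAc)2 buffer was flowed in.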

glucosamine-6-phosphate [2] = variants of: B1; assay: KM; higher = weaker cofactor use; RNA array
Outline: as §1

glucosamine-6-phosphate [3] = variants of: B1; assay: self-cleavage kobs at 640 uM GlcN6P; higher = faster cleavage; RNA array
Outline: as §1

glucosamine-6-phosphate [4] = variants of: B1; assay: self-cleavage kobs at 2500 uM GlcN6P; higher = faster cleavage; RNA array
Outline: as §1

glucosamine-6-phosphate [5] = variants of: B1; assay: self-cleavage kobs at 10000 uM GlcN6P; higher = faster cleavage; RNA array
Outline: as §1

glucosamine-6-phosphate [6] = variants of: B1; assay: self-cleavage kobs at 40 uM GlcN6P; higher = faster cleavage; RNA array
Outline: as §1

glucosamine-6-phosphate [7] = variants of: B1; assay: self-cleavage kobs at 160 uM GlcN6P; higher = faster cleavage; RNA array
Outline: as §1

C11U G40C
kcat (glucosamine-6-phosphate [1]): 0.000197 ± 1.3e-05 s⁻¹ | KM (glucosamine-6-phosphate [2]): 2960 ± 470 µM | self-cleavage kobs at 640 uM GlcN6P (glucosamine-6-phosphate [3]): 3.93e-05 ± 1.6e-05 s⁻¹ | self-cleavage kobs at 2500 uM GlcN6P (glucosamine-6-phosphate [4]): 8.9e-05 ± 1.4e-05 s⁻¹ | self-cleavage kobs at 10000 uM GlcN6P (glucosamine-6-phosphate [5]): 0.000153 ± 1.9e-05 s⁻¹

G13U C16U
kcat (glucosamine-6-phosphate [1]): 0.00286 ± 0.00057 s⁻¹ | KM (glucosamine-6-phosphate [2]): 3430 ± 1000 µM | self-cleavage kobs at 40 uM GlcN6P (glucosamine-6-phosphate [6]): 4.83e-05 ± 1.1e-05 s⁻¹ | self-cleavage kobs at 160 uM GlcN6P (glucosamine-6-phosphate [7]): 0.000115 ± 2.9e-05 s⁻¹ | self-cleavage kobs at 640 uM GlcN6P (glucosamine-6-phosphate [3]): 0.0004 ± 6.9e-05 s⁻¹ | self-cleavage kobs at 2500 uM GlcN6P (glucosamine-6-phosphate [4]): 0.00139 ± 0.00026 s⁻¹ | self-cleavage kobs at 10000 uM GlcN6P (glucosamine-6-phosphate [5]): 0.0021 ± 0.0003 s⁻¹

G32U C68U
kcat (glucosamine-6-phosphate [1]): 0.000114 ± 5.5e-06 s⁻¹ | KM (glucosamine-6-phosphate [2]): 1540 ± 250 µM | self-cleavage kobs at 40 uM GlcN6P (glucosamine-6-phosphate [6]): < 1e-05 s⁻¹ | self-cleavage kobs at 640 uM GlcN6P (glucosamine-6-phosphate [3]): 2.88e-05 ± 8.9e-06 s⁻¹ | self-cleavage kobs at 2500 uM GlcN6P (glucosamine-6-phosphate [4]): 7.28e-05 ± 6.1e-06 s⁻¹ | self-cleavage kobs at 10000 uM GlcN6P (glucosamine-6-phosphate [5]): 9.76e-05 ± 6.8e-06 s⁻¹

C58A C70A
kcat (glucosamine-6-phosphate [1]): 4.48e-05 ± 1.6e-05 s⁻¹ | self-cleavage kobs at 160 uM GlcN6P (glucosamine-6-phosphate [7]): 3.09e-05 ± 1.1e-05 s⁻¹ | self-cleavage kobs at 640 uM GlcN6P (glucosamine-6-phosphate [3]): 5.32e-05 ± 1.4e-05 s⁻¹ | self-cleavage kobs at 2500 uM GlcN6P (glucosamine-6-phosphate [4]): 6.58e-05 ± 1.4e-05 s⁻¹

A12G A52U
kcat (glucosamine-6-phosphate [1]): < 1e-05 s⁻¹ | self-cleavage kobs at 40 uM GlcN6P (glucosamine-6-phosphate [6]): < 1e-05 s⁻¹ | self-cleavage kobs at 640 uM GlcN6P (glucosamine-6-phosphate [3]): < 1e-05 s⁻¹

A48U C71U
kcat (glucosamine-6-phosphate [1]): 0.000562 ± 8.4e-05 s⁻¹ | KM (glucosamine-6-phosphate [2]): 1890 ± 590 µM | self-cleavage kobs at 640 uM GlcN6P (glucosamine-6-phosphate [3]): 0.000153 ± 2.3e-05 s⁻¹ | self-cleavage kobs at 2500 uM GlcN6P (glucosamine-6-phosphate [4]): 0.000338 ± 5.6e-05 s⁻¹ | self-cleavage kobs at 10000 uM GlcN6P (glucosamine-6-phosphate [5]): 0.000461 ± 5.6e-05 s⁻¹

C70U C71A
kcat (glucosamine-6-phosphate [1]): 0.000245 ± 1.7e-05 s⁻¹ | KM (glucosamine-6-phosphate [2]): 607 ± 110 µM | self-cleavage kobs at 160 uM GlcN6P (glucosamine-6-phosphate [7]): 5.23e-05 ± 9.7e-06 s⁻¹ | self-cleavage kobs at 640 uM GlcN6P (glucosamine-6-phosphate [3]): 0.00013 ± 1.4e-05 s⁻¹ | self-cleavage kobs at 2500 uM GlcN6P (glucosamine-6-phosphate [4]): 0.00018 ± 2.3e-05 s⁻¹ | self-cleavage kobs at 10000 uM GlcN6P (glucosamine-6-phosphate [5]): 0.000247 ± 3e-05 s⁻¹

G41C A64G
kcat (glucosamine-6-phosphate [1]): 0.000146 ± 1.2e-05 s⁻¹ | KM (glucosamine-6-phosphate [2]): 1760 ± 510 µM | self-cleavage kobs at 640 uM GlcN6P (glucosamine-6-phosphate [3]): 3.48e-05 ± 8.4e-06 s⁻¹ | self-cleavage kobs at 2500 uM GlcN6P (glucosamine-6-phosphate [4]): 0.000107 ± 1.8e-05 s⁻¹ | self-cleavage kobs at 10000 uM GlcN6P (glucosamine-6-phosphate [5]): 0.000122 ± 8.8e-06 s⁻¹

A12G G66A
kcat (glucosamine-6-phosphate [1]): 0.000586 ± 0.00018 s⁻¹ | KM (glucosamine-6-phosphate [2]): 3600 ± 1700 µM | self-cleavage kobs at 160 uM GlcN6P (glucosamine-6-phosphate [7]): 2.09e-05 ± 9.7e-06 s⁻¹ | self-cleavage kobs at 640 uM GlcN6P (glucosamine-6-phosphate [3]): 0.000105 ± 1.1e-05 s⁻¹ | self-cleavage kobs at 2500 uM GlcN6P (glucosamine-6-phosphate [4]): 0.000195 ± 2.3e-05 s⁻¹ | self-cleavage kobs at 10000 uM GlcN6P (glucosamine-6-phosphate [5]): 0.000496 ± 5.7e-05 s⁻¹

G13C C34U G35U
kcat (glucosamine-6-phosphate [1]): < 1e-05 s⁻¹ | self-cleavage kobs at 40 uM GlcN6P (glucosamine-6-phosphate [6]): < 1e-05 s⁻¹ | self-cleavage kobs at 160 uM GlcN6P (glucosamine-6-phosphate [7]): < 1e-05 s⁻¹ | self-cleavage kobs at 2500 uM GlcN6P (glucosamine-6-phosphate [4]): < 1e-05 s⁻¹ | self-cleavage kobs at 10000 uM GlcN6P (glucosamine-6-phosphate [5]): < 1e-05 s⁻¹

U45A U47A
kcat (glucosamine-6-phosphate [1]): 0.0227 ± 0.0082 s⁻¹ | self-cleavage kobs at 40 uM GlcN6P (glucosamine-6-phosphate [6]): 0.00126 ± 0.0002 s⁻¹ | self-cleavage kobs at 160 uM GlcN6P (glucosamine-6-phosphate [7]): 0.00413 ± 0.001 s⁻¹ | self-cleavage kobs at 640 uM GlcN6P (glucosamine-6-phosphate [3]): 0.00902 ± 0.0014 s⁻¹ | self-cleavage kobs at 2500 uM GlcN6P (glucosamine-6-phosphate [4]): 0.0263 ± 0.0064 s⁻¹

U56A C58A
kcat (glucosamine-6-phosphate [1]): 0.00106 ± 0.00052 s⁻¹ | self-cleavage kobs at 160 uM GlcN6P (glucosamine-6-phosphate [7]): 3.2e-05 ± 1.1e-05 s⁻¹ | self-cleavage kobs at 640 uM GlcN6P (glucosamine-6-phosphate [3]): 0.000101 ± 1.3e-05 s⁻¹ | self-cleavage kobs at 2500 uM GlcN6P (glucosamine-6-phosphate [4]): 0.000187 ± 2.3e-05 s⁻¹ | self-cleavage kobs at 10000 uM GlcN6P (glucosamine-6-phosphate [5]): 0.000605 ± 5.6e-05 s⁻¹

U56A C58G
kcat (glucosamine-6-phosphate [1]): 0.000188 ± 1.8e-05 s⁻¹ | KM (glucosamine-6-phosphate [2]): 1930 ± 470 µM | self-cleavage kobs at 640 uM GlcN6P (glucosamine-6-phosphate [3]): 4.15e-05 ± 9.1e-06 s⁻¹ | self-cleavage kobs at 2500 uM GlcN6P (glucosamine-6-phosphate [4]): 0.000121 ± 1.6e-05 s⁻¹ | self-cleavage kobs at 10000 uM GlcN6P (glucosamine-6-phosphate [5]): 0.000151 ± 1.7e-05 s⁻¹

A6C C61A
kcat (glucosamine-6-phosphate [1]): < 1e-05 s⁻¹ | self-cleavage kobs at 40 uM GlcN6P (glucosamine-6-phosphate [6]): < 1e-05 s⁻¹ | self-cleavage kobs at 10000 uM GlcN6P (glucosamine-6-phosphate [5]): < 1e-05 s⁻¹

A48U U49G
kcat (glucosamine-6-phosphate [1]): 1.55e-05 ± 3.7e-06 s⁻¹ | self-cleavage kobs at 40 uM GlcN6P (glucosamine-6-phosphate [6]): < 1e-05 s⁻¹

U46G C50A
kcat (glucosamine-6-phosphate [1]): < 1e-05 s⁻¹ | self-cleavage kobs at 160 uM GlcN6P (glucosamine-6-phosphate [7]): < 1e-05 s⁻¹
